In patent publication US20230340090A1 one finds OD (O.D. (405 nm)) data, which are given here for seven molecules.

The target in one assay is T1, TP-24 peptide (human).
T1 sequence (peptide, biotinylated): REFFSQYGDVMDVFI
The assay can be described thus: indirect ELISA, biotinylated 15-mer on streptavidin plate. Background: An ELISA detects its analyte on a solid surface through an enzyme-linked reagent.

In a further assay the target is T2, TP-25 peptide (human).
T2 sequence (peptide, biotinylated): VMDVFIPKPFRAFAF
The description is as above.

B1: ACI-7062-404D6-Ab2 (antibody, IgG3, V domains shown)
VH: QVTLKESGPGILQPSQTLSLTCSFSGFSLSTYGIGVGWIRQPSGKGLEWLAHIWWNDYKYYNTALKSRLTISKDTSNNRVFLKIASVDTADTATYYCARVYGNLYYFDYWGQGTTLTVSS
VL: DVLMTQTPLSLPVSLGDQASISCRSSQSIVHGSGNTYLEWYLQKPGQSPKLLIYKVSNRFSGVPDRFSGSGSGTDFTLRISRVEAEDLGVYYCFQGSHVPTFGAGTKLELKR
As for B1, the OD (O.D. (405 nm)) in the assay with TP-24 peptide (human) is 4; in the assay with TP-25 peptide (human) it was 0.9.

B2: ACI-7062-415C4-Ab1 (antibody, IgG1, V domains shown)
VH: QVTLKESGPGILQPSQTLSLTCSFSGFSLSTYGIGVGWIRQPSGKGLEWLAHIWWNDNKYYKTALKSRLTISKDTSNNQVFLKIASVDTADSATYYCARVYGNLYYFGYWGQGTTLTVSS
VL: DVLMTQTPLSLPVSLGDQASISCRSSQSIVHSTGNTYLEWYLQKPGQSPKLLIYKVSNRFSGVPDRFSGSGSGTDFTLKISRVEAEDLGVYYCFQGSRVPTFGAGTKLELKR
For B2, the OD (O.D. (405 nm)) with TP-24 peptide (human) was 3.8; with TP-25 peptide (human) it was 1.2.

B3: ACI-7062-416A11-Ab1 (antibody, IgG2a, V domains shown)
VH: QVTLKESGPGILQSSQTLSLTCSFSGFSLSTYGIGVGWIRQPSGKGLEWLAHIWWNDNKYYNTALKSRLTISKDTSNNQVFLKIASVDTADAATYYCARVYGNLYYFGYWGQGTTLTVSS
VL: DVLMTQTPLSLPVSLGDRASISCRSSQSIVHSSGNTYLEWYLQKPGQSPKLLIYKVSNRFSGVPDRFSGSGSGTDFTLKISRVEAEDLGVYYCFQGSRVPTFGAGTKLELKR
As to B3, the OD (O.D. (405 nm)) with TP-24 peptide (human) came out at 2.9; in the assay with TP-25 peptide (human), 0.9.

B4: ACI-7062-410H3-Ab1 (antibody, IgG1, V domains shown)
VH: DVQLVESGGGLVQPGGSRRLSCAASGFTFSSFGMHWVRQAPEKGLEWVAYIRSGSDIIYYADSVKGRFTISRDNPENTLFLQMTSLRSEDTAMYYCARSGTTVPFDYWGQGTSLTVSS
VL: DIVMTQSPSSLAMSVGQKVTMSCKSSQSLLNSGNQKNYLAWYQQKPGQSPELLLYFASTRASGVPDRFIGSGSGTDFTLTISSVQAEDLADYFCQQHYSIPLTFGAGTKLELKR
As for B4, the OD (O.D. (405 nm)) in the assay with TP-24 peptide (human) amounted to 3.8; with TP-25 peptide (human) it was 0.8.

B5: ACI-7062-412A7-Ab1 (antibody, IgG2b, V domains shown)
VH: DVQLVESGGGLVQPGGSRRLSCAASGFTFSSFGMHWVRQAPEKGLEWVAYIRSGSDIIYYADSVKGRFTISRDNPENTLFLQMTSLRSEDTAMYYCARSGTTVPFDYWGQGTSLTVSS
VL: DIVMTQSPSSLAMSVGQKVTMSCKSSQSLLNSGNQKNYLAWYQQKPGQSPELLLYFASTRASGVPDRFIGSGSGTDFTLTISSVQAEDLADYFCQQHYSIPLTFGAGTKLELKR
Regarding B5, the results for the OD (O.D. (405 nm)) in the assay with TP-24 peptide (human) and with TP-25 peptide (human) were 4 and 1.4, respectively.

B6: ACI-7062-401A2-Ab2 (antibody, IgG1, V domains shown)
VH: DVQLVESGGGLVQPGGSRRLSCAASGFTFSRFGMHWVRQAPEKGLEWVAYIRSGSDIIYYADSVKGRFTISRDNPENTLFLQMTSLRSEDTAMYYCARSGTTVPFDYWGQGTSLTVSS
VL: DIVMTQSPSSLAMSVGQKVTMSCKSSQSLLNSGDQKNYLAWYQQKPGQSPELLLYFASTRASGVPDRFIGSGSGTDFSLTISSVQAEDLADYFCQQHYSIPLTFGAGTKLELKR
B6: the OD (O.D. (405 nm)) stood at 2.5 with TP-24 peptide (human) and 1 in the assay with TP-25 peptide (human).

B7: ACI-7062-412E12-Ab1 (antibody, IgG1, V domains shown)
VH: DVQLVESGGGLVQPGGSRRLSCAASGFTFSRFGMHWVRQAPEKGLEWVAYIRSGSDIIYYADSVKGRFTISRDNPENTLFLQMTSLRSEDTAMYYCARSGTTVPFDYWGQGTSLTVSS
VL: DIVMTQSPSSLAMSVGQKVTMSCKSSQSLLNSGDQKNYLAWYQQKPGQSPELLLYFASTRASGVPDRFIGSGSGTDFSLTISSVQAEDLADYFCQQHYSIPLTFGAGTKLELKR
With B7, the OD (O.D. (405 nm)) was found to be 3.2 with TP-24 peptide (human) and 1.2 with TP-25 peptide (human).
